# Legend:
# Aβ1-40 synthetic peptide = Aβ1-40 synthetic peptide (UniProt P05067 672-711); test: ELISA
# Aβ1-42 synthetic peptide = Aβ1-42 synthetic peptide (UniProt P05067 672-713); test: ELISA
# Chain of Aβ1-42 synthetic peptide (P05067 672-713): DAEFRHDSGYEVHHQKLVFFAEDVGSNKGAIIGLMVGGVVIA
# Chain of Aβ1-40 synthetic peptide (P05067 672-711): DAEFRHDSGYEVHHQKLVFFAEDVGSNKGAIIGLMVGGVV
Kd (Aβ1-40 synthetic peptide) [nM],Kd (Aβ1-42 synthetic peptide) [nM],Binder
16.4,10.6,wild type human cystatin C (other) SSPGKPPRLVGGPMDASVEEEGVRRALDFAVGEYNKASNDMYHSRALQVVRARKQIVAGVNYFLDVELGRTTCTKTQPNLDNCPFHDQPHLKRKAFCSFQIYAVPWQGTMTLSKSTCQDA
9.2,5.9,"variant human cystatin C (L68Q, HCHWA-I variant) (other) SSPGKPPRLVGGPMDASVEEEGVRRALDFAVGEYNKASNDMYHSRALQVVRARKQIVAGVNYFLDVEQGRTTCTKTQPNLDNCPFHDQPHLKRKAFCSFQIYAVPWQGTMTLSKSTCQDA"
9,6.6,urinary cystatin C (Calbiochem Biosciences) (other) SSPGKPPRLVGGPMDASVEEEGVRRALDFAVGEYNKASNDMYHSRALQVVRARKQIVAGVNYFLDVELGRTTCTKTQPNLDNCPFHDQPHLKRKAFCSFQIYAVPWQGTMTLSKSTCQDA

# — patent publication US7790673 (dated 2010)
